Experiment [1] deals with KKETAV hexapeptide (optimised consensus C-terminal ligand of PSD-95 PDZ3). In words: ITC (MicroCal ITC-200). The following applies: pH 7.5, 25 °C, no added salt stated (50 mM potassium phosphate only).
Experiment [2] shares this target. In words: ITC (quoted from ref. 19, Saro et al. 2007). As to conditions: pH 6.0, 25 °C, 10 mM NaCl, 20 mM MES; cited from earlier work.
The target in experiment [3] is CRIPT (Homo sapiens). In words: ITC. The following applies: cited from earlier work.
Experiment [4] deals with KKETAV peptide. In words: ITC. The following applies: cited from earlier work.
For experiment [5], the target named is CRIPT (Homo sapiens). Put plainly: ITC. As to conditions: cited from earlier work. This is another data set of the same source.
Experiment [6] deals with CRIPT (Homo sapiens). Put plainly: ITC. As to conditions: cited from earlier work. This is another data set of the same source.
Experiment [7] concerns the target T1, PDZ3 domain of PSD-95 (wild type, residues 302-403) (UniProt P31016 302-403).
T1 construct: Postsynaptic density protein-95 (PSD-95; SAP-90; DLG-4), third PDZ domain with the α3 helix, residues 302-403 of the full PSD-95 protein; PDB 1BE9 is a longer construct of the same domain; 15N-labelled for NMR; also called PSD-95-PDZ3; WT-PDZ3; source: E. coli BL21/DE3, purified
Put plainly: ITC; KKETAV (900 µM; 3 mM for D332P-PDZ3) injected into the protein in the cell (70 µM; 200 µM for D332P-PDZ3); 25°C; 50 mM potassium phosphate pH 7.5; single set of identical sites model. As to conditions: both partners purified. In general terms: In ITC the heat of successive injections is recorded.

Experiment [8] has as its target T2, Δ10ct-PDZ3 (PSD-95 residues 302-393, without the α3 helix) (UniProt P31016 302-393).
T2 construct: PSD-95 third PDZ domain truncated of its ten C-terminal residues (α3 helix), residues 302-393 of the full PSD-95 protein; 15N-labelled for NMR; source: E. coli BL21/DE3, purified
The description is as above. As to conditions: both partners purified.

These results are taken from article PMC3935999, “Post-Translational Modifications Modulate Ligand Recognition by the Third PDZ Domain of the MAGUK Protein PSD-95” (PLoS ONE, 2014).

T2 sequence (P31016 302-393, stated change not applied): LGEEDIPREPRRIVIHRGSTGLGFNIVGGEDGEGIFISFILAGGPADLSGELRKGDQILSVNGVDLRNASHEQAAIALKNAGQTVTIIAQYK
T1 sequence (P31016 302-403): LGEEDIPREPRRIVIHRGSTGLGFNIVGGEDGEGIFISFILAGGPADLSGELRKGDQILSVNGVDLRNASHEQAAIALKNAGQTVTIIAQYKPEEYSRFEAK

As a reminder, the Kd is a measure of binding affinity in units of concentration. Regarding “PSD-95 (DLG4/SAP-90) third PDZ domain, PDZ3, wild type”, the ΔG in experiment [1] is -8 kcal/mol. Further, in experiment [2], the Kd is 450 nM and the ΔG is -8.7 kcal/mol.
As for PSD-95 PDZ3 (from UniProt P78352), the Kd in experiment [3] is 14000 nM; in experiment [4], 450 nM; in experiment [5] it was 3600 nM; in experiment [6], 1000 nM.

B1: KKETAV hexapeptide (peptide)
peptide: KKETAV
notes: residues numbered from 0 (C-terminal Val) to -5 (N-terminal Lys); also called KKETAV ligand; consensus hexapeptide; source: bought: Peptide 2.0 (USA)
The term stoichiometry N denotes a count of units in the complex or per binding partner. For B1, the “stoichiometry N” value in experiment [7] amounted to 0.99. Moreover, in experiment [8], the affinity, expressed as Kd, was 3600 nM; the dH is -8.8 kcal/mol; the “stoichiometry N” value was 0.9.
